The results in this text go back to article PMC2613339.

In the experiment the target is protein phosphatase-1 alpha catalytic subunit (recombinant PP1α) (UniProt P62139).
UniProt P62139, sequence (P62139 whole entry): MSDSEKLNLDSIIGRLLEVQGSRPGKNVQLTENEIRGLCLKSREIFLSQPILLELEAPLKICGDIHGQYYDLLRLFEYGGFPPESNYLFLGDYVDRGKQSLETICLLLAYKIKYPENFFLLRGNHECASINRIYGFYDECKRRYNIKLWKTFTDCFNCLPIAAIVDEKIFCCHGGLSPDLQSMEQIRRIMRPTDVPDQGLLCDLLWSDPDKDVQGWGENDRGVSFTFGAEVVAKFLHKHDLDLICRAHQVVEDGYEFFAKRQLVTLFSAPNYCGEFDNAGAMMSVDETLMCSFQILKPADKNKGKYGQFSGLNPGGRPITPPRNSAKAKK

B1: Inh3(1–47) (domain or fragment)
chain: MAEAGAGLSETVTETTVTVTTEPENRSLTIKLRKRKPEKKVEWTSDT
In the case of B1, the fold increase in IC50 of inhibition of PP1 activity, against Inh3(1–64) was 3.5 fold.
